Test results published in the supplement of paper PMC11811203.

B1: THAP1; numbered along this chain (parent)
chain: MVQSCSAYGCKNRYDKDKPVSFHKFPLTRPSLCKEWEAAVRRKNFKPTKYSSICSEHFTPDCFKRECNNKLLKENAVPTIFLCTEPHDKKEDLLEPQEQLPPPPLPPPVSQVDAAIGLLMPPLQTPVNLSVFCDHNYTVEDTMHQRKRIHQLEQQVEKLRKKLKTAQQRCRRQERQLEKLKEVVHFQKEKDDVSERGYVILPNDYFEIVEVPA

Variants of: B1
Test: THAP1 transcriptional activity (GFP+/GFP- enrichment relative to wild-type constructs) (ratio to WT); higher = more THAP1 activity (PSMB5 reporter activation)
Conditions: with PSMB5 promoter-GFP reporter
Method in brief: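 A lentiviral site-saturation library covering residues 2–213 of human THAP1, with each position changed to all 20 amino acids, was transduced in duplicate at MOI ~0.3 into THAP1-knockout HEK-293T cells with mClover3 knocked in at endogenous PSMB5. Five days later, BFP+ cells were sorted into GFP-dim and GFP-bright bins and variants were counted by Illumina sequencing of genomic DNA amplicons. Activity is the bright/dim read fold change averaged over replicates and divided by the mean of wild-type synonymous constructs.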

THAP1 transcriptional activity of substitutions, site by site:
S52: A 1.55, C 1.57, D 0.109, E 0.0459, F 0.325, G 0.141, H 0.251, I 0.379, K 0.641, L 0.606, M 0.633, N 0.469, P 0.096, Q 0.261, T 1.41, V 1.14, W 0.089, Y 0.46
I53: A 0.136, C 0.164, D 0.133, E 0.101, F 0.0519, G 0.0813, H 0.1, K 0.0685, M 0.194, N 0.0864, P 0.0932, Q 0.0507, R 0.0647, S 0.112, T 0.111, V 0.447, W 0.052, Y 0.141
C54: A 0.0793, D 0.178, E 0.0874, F 0.105, G 0.0692, H 0.0812, I 0.0624, K 0.097, L 0.0556, M 0.0985, N 0.106, P 0.234, Q 0.0652, R 0.0929, S 0.154, T 0.0761, V 0.0511, W 0.107, Y 0.124
S55: A 0.112, C 0.0655, D 0.077, E 0.127, F 0.084, G 0.185, H 0.0394, I 0.114, K 0.0934, L 0.106, M 0.0662, N 0.147, P 0.0679, Q 0.168, R 0.113, T 0.128, V 0.101, W 0.0398, Y 0.109
E56: A 0.98, C 0.263, D 1.26, F 0.363, G 0.114, H 0.253, I 0.6, K 0.472, L 0.526, M 0.509, N 0.344, P 0.0876, Q 0.873, R 0.389, S 0.473, T 0.336, V 0.83, W 0.249, Y 0.194
H57: A 0.116, C 0.196, D 0.0578, E 0.0678, F 0.126, G 0.0681, I 0.102, K 0.126, L 0.107, M 0.138, N 0.0635, P 0.0956, Q 0.0983, R 0.183, S 0.121, T 0.109, V 0.105, W 0.0852, Y 0.115
F58: A 0.0948, C 0.0689, D 0.0836, E 0.149, G 0.064, H 0.131, I 0.0956, K 0.0827, L 0.121, M 0.105, N 0.0722, P 0.0346, Q 0.0792, R 0.046, S 0.0937, T 0.0696, V 0.115, W 0.143, Y 0.153
T59: A 0.736, C 0.138, D 0.292, E 1.07, F 0.186, G 0.413, H 0.511, I 0.147, K 0.423, L 0.372, M 0.544, N 0.386, P 0.248, Q 0.605, R 0.426, V 0.269, W 0.0856, Y 0.0936
P60: A 0.758, C 0.174, D 0.532, E 0.745, F 0.333, G 0.443, H 0.509, K 0.834, L 0.35, M 0.374, N 0.844, Q 1.17, R 0.718, S 0.985, T 0.758, W 0.256, Y 0.259
D61: A 0.309, C 0.198, F 0.173, G 0.219, H 0.228, I 0.133, K 0.217, L 0.209, M 0.207, N 0.472, P 0.104, Q 0.282, R 0.22, S 0.312, T 0.368, V 0.101, W 0.145, Y 0.127
C62: A 0.523, D 1.01, E 0.143, F 0.151, G 0.113, H 0.173, I 0.09, K 0.21, M 0.591, N 0.487, P 0.0987, Q 0.74, R 0.181, S 1.72, T 0.195, V 0.0798, W 0.113, Y 0.141
F63: A 0.117, C 0.139, D 0.063, E 0.0925, G 0.1, H 0.0911, I 0.134, L 0.0863, M 0.089, N 0.14, P 0.103, Q 0.0896, R 0.084, S 0.0787, T 0.128, V 0.082, W 0.473, Y 0.623
K64: A 0.0797, C 0.0975, D 0.151, E 0.188, F 0.102, G 0.219, H 0.0785, I 0.159, L 0.145, M 0.112, N 0.237, P 0.104, Q 0.25, R 1.06, S 0.123, T 0.115, V 0.215, W 0.0652, Y 0.0778
R65: A 0.63, C 0.173, D 0.388, E 0.629, F 0.208, G 0.424, H 0.327, I 0.626, L 1.04, M 0.623, N 0.596, P 0.671, Q 0.982, S 0.735, T 0.797, V 0.559, W 0.212, Y 0.369
E66: A 1.36, C 1.21, F 0.996, I 0.457, K 0.629, L 0.436, M 0.558, N 2.46, P 0.346, Q 0.814, R 0.539, S 1.14, T 1.3, V 0.638, W 1.25, Y 0.777
C67: A 0.639, D 0.135, E 0.119, F 0.147, G 0.127, H 0.198, I 0.198, K 0.472, L 0.481, M 0.594, N 0.17, P 0.13, Q 0.239, R 0.502, S 0.964, T 1.19, V 0.777, W 0.116, Y 0.2
N68: A 0.103, C 0.157, D 0.0906, F 0.0942, G 0.127, H 0.2, I 0.15, K 0.162, L 0.131, M 0.141, P 0.161, Q 0.193, R 0.161, S 0.192, T 0.179, V 0.125, W 0.089, Y 0.125
N69: A 0.111, C 0.181, D 0.131, E 0.0951, F 0.109, G 0.122, H 0.344, I 0.672, K 0.133, L 0.301, M 0.597, P 0.092, Q 0.143, R 0.216, S 0.193, T 0.226, V 0.399, W 0.0798, Y 0.261
K70: A 0.434, C 0.313, D 0.0985, E 0.134, F 0.163
